Source: article PMC3160269

Target: biotinylated soluble IA^b-p3K (mouse)
Assay: SPR

Work on soluble YAe62 TCR yielded a Kd of 9 µM.
